Where two headings read alike, the source gives them in different places.
Assays:
dimeric CA-IX = target: T1, dimeric CA-IX (Homo sapiens, UniProt Q16790); assay: SPR binding affinity, VHH format, dimeric CA-IX; settings: SPR data (FIG. 3A); monomer or dimer not specified
T1 construct: to the dimeric extracellular domain (ECD) of hCA-IX
Experimental: FIG. 3A is a graph showing the binding kinetics determined by surface plasmon resonance (SPR) for 3 CA-IX single domain antibodies (sdCA9-1, -2, -3-VHH) to the dimeric extracellular domain (ECD) of hCA-IX.
In vitro binding affinity/SPR. To evaluate the binding affinity (KD) of the VHH only format of the […] single domain antibodies, CA-IX monomer and dimer were immobilized on SA sensor chip (GE Healthcare) and serial dilutions of the sdAbs were injected over the surface (FIG. 3A). […] The two single domain antibodies sdCA9-1-VHH and sdCA9-2-VHH were selected for further characterizations.

dog CA-IX = dog CA-IX (Canis lupus familiaris, UniProt A0A8I3NCN1); assay: ELISA species cross reactivity, dog CA-IX; type: binding; settings: 500 nM sdCA9-VHH
Chain of dog CA-IX (A0A8I3NCN1 38-461): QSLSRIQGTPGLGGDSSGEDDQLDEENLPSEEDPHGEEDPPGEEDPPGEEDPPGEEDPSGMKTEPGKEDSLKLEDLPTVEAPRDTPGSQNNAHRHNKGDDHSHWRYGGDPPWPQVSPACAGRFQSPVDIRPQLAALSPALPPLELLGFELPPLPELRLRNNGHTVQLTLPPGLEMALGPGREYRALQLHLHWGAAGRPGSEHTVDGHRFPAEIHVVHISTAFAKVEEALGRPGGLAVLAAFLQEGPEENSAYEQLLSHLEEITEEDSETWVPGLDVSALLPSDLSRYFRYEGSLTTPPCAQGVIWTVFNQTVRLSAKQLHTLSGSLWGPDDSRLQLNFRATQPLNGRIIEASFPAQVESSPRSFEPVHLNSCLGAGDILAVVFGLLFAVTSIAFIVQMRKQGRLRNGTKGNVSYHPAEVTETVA
Experimental: (§1) Binding above background was measured in an ELISA assay for the binding of 500 nM of sdCA9-VHH antibodies to human CA-II, CA-IV, CA-IX, CA-XII and CA-XIV (isoform cross reactivity, upper panel), then CA-IX for mouse, human, cynomolgus monkey and dog (species cross reactivity, lower panel). (sdCA9-1-VHH ( ? ) and sdCA9-2-VHH ( ? )
(§2) Cross reactivity and CA-IX specificity. Binding specificity and species cross reactivity of two sdAb were tested in an ELISA assay using purified proteins for human, mouse, cynomolgus monkey and dog CA-IX.

mouse CA-IX = mouse CA-IX (Mus musculus, UniProt Q8VHB5); assay: ELISA species cross reactivity, mouse CA-IX; type: binding; settings: 500 nM sdCA9-VHH
Chain of mouse CA-IX (Q8VHB5 32-437): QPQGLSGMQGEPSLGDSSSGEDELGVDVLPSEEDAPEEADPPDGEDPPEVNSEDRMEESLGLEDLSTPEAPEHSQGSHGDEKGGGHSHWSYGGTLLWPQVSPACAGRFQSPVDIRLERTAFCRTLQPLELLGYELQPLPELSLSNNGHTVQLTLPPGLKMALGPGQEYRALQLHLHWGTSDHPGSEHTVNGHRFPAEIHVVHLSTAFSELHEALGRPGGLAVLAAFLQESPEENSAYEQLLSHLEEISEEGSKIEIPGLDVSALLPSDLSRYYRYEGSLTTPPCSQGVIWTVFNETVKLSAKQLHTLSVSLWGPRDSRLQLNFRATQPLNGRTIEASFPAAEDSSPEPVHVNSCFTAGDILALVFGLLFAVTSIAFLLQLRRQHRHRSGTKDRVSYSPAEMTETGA
Experimental: as §1, §2

[1] = tested on: 67NR^hCA-IX derived spheroids; assay: Spheroid growth inhibition, 67NR^hCA-IX; type: cell-based, mouse; settings: for spheroid growth, different concentrations: monitored for 8 days, compared with 67NR derived spheroids
Source text: (§3) Spheroid growth inhibition.

human CA-IX = human CA-IX (Homo sapiens, UniProt Q16790); assay: ELISA species cross reactivity, human CA-IX; type: binding; settings: 500 nM sdCA9-VHH
Experimental: as §1, §2

[2] = target: T2, purified hCA-IX ECD dimer (Homo sapiens, UniProt Q16790); assay: In vitro rhCA-IX enzyme activity inhibition (4Mu-Ac hydrolysis); type: biochemical; settings: for IC50: 4Mu-Ac substrate; for inhibition of hCA-IX enzyme activity, in words: hCA-IX dimer, 4Mu-Ac hydrolysis
T2 construct: in vitro enzyme activity assay using purified hCA-IX ECD dimer
Experimental: In vitro rhCA-IX enzyme activity inhibition. In order to examine the functional consequence of the binding of the two sdCA9-VHH antibodies to hCA-IX ECD, antibodies were tested in an in vitro enzyme activity assay using purified hCA-IX ECD dimer and 4-Methylumbelliferyl acetate (4Mu-Ac) as substrate.

[3] = tested on: hCA-IX negative parental 67NR spheroids; assay: Spheroid growth inhibition, parental 67NR; type: cell-based, mouse; settings: hCA-IX negative cells
Source text: as §3

cyno CA-IX = assay: ELISA species cross reactivity, cynomolgus monkey CA-IX; type: binding; settings: 500 nM sdCA9-VHH
Experimental: as §1, §2

[4] = [inhibitor] vs. normalized response - variable slope
[5] = [inhibitor] vs. normalized response - variable slope, read-out: IC50 (best fit value)

B1: sdCA9-3-VHH: llama single domain antibody (VHH) binding CA-IX, amino acid sequence SEQ ID NO: 9 (protein)
VHH: QVQLVESGGGLVQAGDSLRLSCAASGGTFSRYGMGWFRQAPGKEREFVAAISGTGLNTYYMDSVKGRFTISRDNAENTVYLQMNSLKPEDTAVYYCARDRGGVEYDYWGQGTQVTVSS
modifications: A 118 amino acid sequence for CA9-3-VHH
In the case of B1, the “binding to CA-IX by SPR, in words” value (dimeric CA-IX) is reported as “binds with high affinity but less so than the other two”.

B2: sdCA9-1-VHH: llama single domain antibody (VHH) binding CA-IX catalytic domain, amino acid sequence SEQ ID NO: 1 (protein)
VHH: QVQLVESGGGLVQAGGSLRLSCAASGFTFDDWAIGWFRQAPGKEREGVSCISKRHGTTHYADSVKGRFTISSDNAKNTVYLRMNGLKPEDTAVYYCAASSWGSCTVATMRDVDRYDYDYWGQGTQVTVSS
modifications: Amino acid sequence for sdCA9-1- VHH
With B2 the “binding to dog CA-IX” value (dog CA-IX) was “binds”, the “binding to mouse CA-IX” value (mouse CA-IX) was “binds” and the “spheroid growth, different concentrations” value [1] was “seemed not to be specific”. The “binding to human CA-IX” value (human CA-IX) was “binds”, the “binding to CA-IX by SPR, in words” value (dimeric CA-IX) was “bind with high affinity” and the “HillSlope (best fit value)” value [2, 4] was −0.1194. For the same molecule, the IC50 [2, 5] was 111 nM, the “inhibition of hCA-IX enzyme activity, in words” value [2] was “only partially” and the IC50 ([2]; hCA-IX-ECD dimer, read-out: IC50 values) was ~100 nM. For the same molecule, the “effect on parental 67NR spheroids” value [3] was “hCA-IX non-specific phenotype” and the “binding to cyno CA-IX” value (cyno CA-IX) was “binds”.

B3: sdCA9-2-VHH: llama single domain antibody (VHH) binding CA-IX catalytic domain, amino acid sequence SEQ ID NO: 5 (protein)
VHH: QVKLEESGGDLVQPGGSLRLSCAASGFTLDYYAIGWFRQAPGKEREGVSCFSSVDGSTYYADSVKGRFTISRDNAKNMVYLQMNSLKPEDTAIYYCAAELYGELGVATVQAMCRLTTPGGDYWGQGTQVTVSS
modifications: Amino acid sequence for sdCA9-2-VHH
For B3, the “growth of spheroids over time” value ([1]; 100 μg/mL) was “specifically inhibits the growth of 67NR^hCA-IX spheroids over time”, the “spheroid growth, different concentrations” value [1] was “inhibited spheroid growth in a dose-dependent manner” and the “binding to human CA-IX” value (human CA-IX) was “selectively binds”. The “binding to CA-IX by SPR, in words” value (dimeric CA-IX) was “bind with high affinity”, the “HillSlope (best fit value)” value [2, 4] was −0.2974 and the IC50 [2, 5] was 48.4 nM. The “inhibition of hCA-IX enzyme activity, in words” value [2] was “inhibited the hCA-IX enzyme activity to similar levels achieved by SMI U104” and the “binding to cyno CA-IX” value (cyno CA-IX) was “selectively binds”.
